Data published in patent publication US20170037110A1 (IMMATICS BIOTECHNOLOGIES, published 2017).
Non-standard residues stand in square brackets, D forms with d. No end group written: not given here. pS = N[C@@H](COP(=O)(O)O)C(=O)O

Molecular target: T1, HLA-A*02:01 (human)
T1 construct: monomers captured on streptavidin plates; also called MHC class I
Test: UV peptide exchange ELISA
Summary of the method: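 Peptide-MHC complexes formed by UV-triggered exchange of a cleavable peptide for the test peptide, with stabilised complexes indicating binding. Exchange products diluted 100 fold onto streptavidin-coated wells, 1h at 37° C.; HRP anti-β2m (2 μg/ml), TMB, absorbance at 450 nm gives exchange yield.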

Binder	peptide exchange yield [%]
ALQDRVPLA	50 to 75
ILAPTVMMI	50 to 75
NLIGKIENV	50 to 75
KLYEAVPQL	50 to 75
ALMYESEKVGV	50 to 75
FLLAHGLGFLL	≥ 75
LLLPDQPPYHL	50 to 75
KLLEGQVIQL	50 to 75
ALLDQTKTLAESAL	50 to 75
YLYNEGLSV	50 to 75
FQLDPSSGVLVTV	50 to 75
KMSELRVTL	50 to 75
ILIDSIYKV	50 to 75
FLIEPEHVNTV	20 to 50
SMAELDIKL	50 to 75
LLAPTPYIIGV	50 to 75
ALWETEVYI	50 to 75
VTFGEKLLGV	20 to 50
SLLELDGINL	50 to 75
SLSELEALM	50 to 75
RLL[pS]AAENFL [RLLJAAENFL]	50 to 75
FLSSVTYNL	50 to 75
VLFDSESIGIYV	50 to 75
FLDENIGGVAV	50 to 75
ILVEADGAWVV	≥ 75

Binder	peptide exchange yield [%]
GLLEVMVNL	50 to 75
SLIEKLWQT	20 to 50
KLYEGIPVLL	≥ 75
RLYSGISGLEL	50 to 75
VLPPDTDPA	20 to 50
RLLPPGAVVAV	50 to 75
TLAELQPPVQL	50 to 75
IMEDIILTL	50 to 75
FLYDNLVESL	20 to 50
SILDRDDIFV	50 to 75
SLDSTLHAV	50 to 75
TLLAEALVTV	50 to 75
GLPRFGIEMV	50 to 75
ALPEAPAPLLPHIT	20 to 50
SLLEQGKEPWMV	50 to 75
YLLDDGTLVV	≥ 75
IMLKGDNITL	50 to 75
YLLNDASLISV	50 to 75
FLFSQLQYL	20 to 50
YAAPGGLIGV	20 to 50
VLMDRLPSLL	≥ 75
SLLSVSHAL	50 to 75
YLLEQIKLIEV	≥ 75
SLFIGEKAVLL	50 to 75
FLLVGDLMAV	50 to 75

Binder	peptide exchange yield [%]
ALAELYEDEV	50 to 75
YLVEDIQHI	50 to 75
GILARIASV	50 to 75
VLIDEVESL	50 to 75
GLLDYPVGV	50 to 75
RLLGEEVVRVLQA	50 to 75
ALWKQLLEL	50 to 75
ALAAPDIVPAL	50 to 75
SLMELPRGLFL	≥ 75
VLLSIYPRV	50 to 75
SLFSSLEPQIQPV	50 to 75
ALLDPEVLSIFV	50 to 75
SAFPFPVTV	50 to 75
VLLDVSAGQLLM	≥ 75
FLQGYQLHL	≥ 75
LLPDLEFYV	≥ 75
KLLNKIYEA	≥ 75
YLPAVFEEV	50 to 75
NIFDLQIYV	50 to 75
SLLDLETLSL	≥ 75
YLLPSGGSVTL	20 to 50
KMIETDILQKV	≥ 75
FLFPHSVLV	50 to 75
